Measurements as given in patent US20050287542A1 (YALE UNIVERSITY, published 2005).
Ends that are not written are not given here.

Molecular target: T1, GST-KIXY650A (Y650A variant of CBP KIX) (UniProt P45481 586-665, limits assumed)
T1 construct: domain: KIX; not shown: GST tag
Test: fluorescence polarization, 25 nM fluorescein-labelled peptide, GST-KIXY650A titrated

T1 sequence (P45481 586-665 Y650A limits assumed): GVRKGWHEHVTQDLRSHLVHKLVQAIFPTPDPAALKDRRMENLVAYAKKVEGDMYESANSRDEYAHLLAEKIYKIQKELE

Binder: GISWPTFEGDDAPVRRLSFFYILLDLYLDAPGVC(acetamidofluorescein)-NH2 (designed binder, also called PPKID6 (unphosphorylated)) [PPKID6^U]
- EC50 (read off the curve): ~700 nM
